Measurements reported in patent publication US20200054764A1, “MEDICAL USE OF ANTI-C MET ANTIBODY-CYTOTOXIC DRUG CONJUGATE” (priority 2016, published 2020).

Legend:
[1] = molecular target: human c-Met on MKN45 cells (human) (UniProt P08581); experiment: cell-based or functional assay
[2] = system: a variety of human tumor cell lines; conditions: background statement; cited from earlier work
[3] = molecular target: T1, human c-Met ECD his tag (Human c-Met ECD-His) recombinant protein (human, UniProt P08581 25-932); experiment: ELISA, plate coated with human c-Met-His at 2 ug/mL
T1 construct: extracellular domain; It was expressed in 293F cells; Natural c-Met is cleaved into alpha and beta subunits; also called human c-Met-His; not shown: C-terminal His tag

human c-Met-His = molecular target: T2, human c-Met-His (Homo sapiens, UniProt P08581); experiment: ELISA binding of c-Met antibody to c-Met antigen; conditions: hybridoma clones, ELISA, OD450
T2 construct: His tag (6xHis) (C); made in house; host or cells: 293F cells (Invitrogen, Cat # R790-07); vector pEE6.4; c-Met gene template origene RC217003
Method: This experiment uses enzyme linked immunosorbent assay to detect affinity of c-Met antibody (including supermatant of hybridonma or recombinant expressed monoclonal antibodies) to c-Met antigen in vitro.
Experimental procedures: Coating buffer (PBS; Hyclone, Cat No.: SH30256.01B) was used to dilute antigen (human c-Met-His, example 1) to 2 μg/mL, which was added to a 96-well microplate at 100 μL/well (Costar 9018, Cat No.:03113024) and incubated overnight at 4° C. […] The plate was read with plate reader at 450 nm.
Murine anti-human c-Met monoclonal cell lines were obtained by immunizing mice, fusion of spleen cells, and screening of hybridomas. […] After the first booster immunization, mice serum was collected during 7 to 10 days after each booster immunization, and the titer was detected by ELISA (Methods were described in Example 2).
After immunization, mice with a serum titer higher than 1:10^5 were selected for cell fusion. Mouse B-cells and myeloma cells (SP2/0, ATCC number:CRL-1581™) were prepared respectively in aseptic conditions and counted. […] The next day, positive clones were detected by ELISA (see Methods in Example 2).

Sequence of human c-Met on MKN45 cells (human) (P08581 25-1390): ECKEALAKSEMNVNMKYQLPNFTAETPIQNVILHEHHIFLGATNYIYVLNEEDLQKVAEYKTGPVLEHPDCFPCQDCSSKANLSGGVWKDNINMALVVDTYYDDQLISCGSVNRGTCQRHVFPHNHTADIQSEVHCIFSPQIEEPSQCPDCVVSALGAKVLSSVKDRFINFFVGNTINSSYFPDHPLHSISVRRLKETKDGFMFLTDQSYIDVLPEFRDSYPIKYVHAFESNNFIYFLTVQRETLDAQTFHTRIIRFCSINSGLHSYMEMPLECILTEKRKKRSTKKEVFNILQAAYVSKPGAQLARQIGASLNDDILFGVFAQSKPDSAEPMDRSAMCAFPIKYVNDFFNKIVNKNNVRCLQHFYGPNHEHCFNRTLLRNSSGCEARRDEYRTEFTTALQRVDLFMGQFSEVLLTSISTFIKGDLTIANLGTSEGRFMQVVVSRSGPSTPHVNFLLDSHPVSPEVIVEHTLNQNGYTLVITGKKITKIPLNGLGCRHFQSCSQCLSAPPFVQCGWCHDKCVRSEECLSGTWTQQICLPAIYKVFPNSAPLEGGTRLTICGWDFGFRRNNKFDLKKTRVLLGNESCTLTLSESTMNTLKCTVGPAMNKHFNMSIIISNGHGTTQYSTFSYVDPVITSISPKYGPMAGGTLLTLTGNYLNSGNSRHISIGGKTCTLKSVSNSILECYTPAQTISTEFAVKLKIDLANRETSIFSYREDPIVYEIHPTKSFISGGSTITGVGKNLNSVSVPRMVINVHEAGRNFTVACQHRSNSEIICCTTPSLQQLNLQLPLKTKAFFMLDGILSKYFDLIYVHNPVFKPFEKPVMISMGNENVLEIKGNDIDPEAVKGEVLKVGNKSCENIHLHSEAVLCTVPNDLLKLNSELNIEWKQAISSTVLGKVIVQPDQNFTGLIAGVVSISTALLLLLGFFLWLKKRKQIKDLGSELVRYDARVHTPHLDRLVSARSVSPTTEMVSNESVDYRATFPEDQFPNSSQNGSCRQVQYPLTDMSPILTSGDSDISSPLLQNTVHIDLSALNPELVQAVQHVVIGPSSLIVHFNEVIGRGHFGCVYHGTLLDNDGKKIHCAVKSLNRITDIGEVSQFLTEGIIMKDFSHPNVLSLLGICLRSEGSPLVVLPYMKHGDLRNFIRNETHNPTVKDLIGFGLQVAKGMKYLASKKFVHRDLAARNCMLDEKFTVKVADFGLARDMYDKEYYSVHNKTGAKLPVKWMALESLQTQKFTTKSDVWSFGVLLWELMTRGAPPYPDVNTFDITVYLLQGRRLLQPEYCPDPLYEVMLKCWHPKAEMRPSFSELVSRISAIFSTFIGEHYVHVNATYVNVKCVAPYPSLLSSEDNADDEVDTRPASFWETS
T2 sequence (P08581 with tags, fused parts or gaps limits assumed): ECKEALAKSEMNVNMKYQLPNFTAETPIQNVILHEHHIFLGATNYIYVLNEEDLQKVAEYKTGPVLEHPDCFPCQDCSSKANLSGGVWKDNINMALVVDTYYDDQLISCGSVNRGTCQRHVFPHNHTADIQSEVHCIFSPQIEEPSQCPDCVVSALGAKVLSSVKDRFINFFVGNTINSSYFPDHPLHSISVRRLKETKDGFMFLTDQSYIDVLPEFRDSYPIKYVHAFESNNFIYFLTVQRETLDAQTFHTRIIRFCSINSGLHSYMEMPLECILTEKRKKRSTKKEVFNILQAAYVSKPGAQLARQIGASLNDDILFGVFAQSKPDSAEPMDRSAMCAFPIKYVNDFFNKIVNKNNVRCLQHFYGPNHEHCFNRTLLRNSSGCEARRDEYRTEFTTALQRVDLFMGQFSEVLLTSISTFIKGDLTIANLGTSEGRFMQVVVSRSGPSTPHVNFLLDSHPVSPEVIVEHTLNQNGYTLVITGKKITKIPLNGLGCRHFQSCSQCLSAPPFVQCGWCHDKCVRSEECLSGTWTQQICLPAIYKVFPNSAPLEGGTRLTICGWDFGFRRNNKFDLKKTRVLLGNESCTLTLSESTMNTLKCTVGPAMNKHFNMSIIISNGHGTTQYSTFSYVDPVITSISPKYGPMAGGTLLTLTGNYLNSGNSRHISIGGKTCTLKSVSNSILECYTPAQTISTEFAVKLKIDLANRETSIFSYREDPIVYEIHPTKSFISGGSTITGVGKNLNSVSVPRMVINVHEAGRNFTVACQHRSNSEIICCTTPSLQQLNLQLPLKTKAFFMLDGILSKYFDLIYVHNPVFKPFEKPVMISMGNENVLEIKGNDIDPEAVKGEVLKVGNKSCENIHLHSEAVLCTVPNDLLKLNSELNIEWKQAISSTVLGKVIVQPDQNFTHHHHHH
T1 sequence (P08581 25-932): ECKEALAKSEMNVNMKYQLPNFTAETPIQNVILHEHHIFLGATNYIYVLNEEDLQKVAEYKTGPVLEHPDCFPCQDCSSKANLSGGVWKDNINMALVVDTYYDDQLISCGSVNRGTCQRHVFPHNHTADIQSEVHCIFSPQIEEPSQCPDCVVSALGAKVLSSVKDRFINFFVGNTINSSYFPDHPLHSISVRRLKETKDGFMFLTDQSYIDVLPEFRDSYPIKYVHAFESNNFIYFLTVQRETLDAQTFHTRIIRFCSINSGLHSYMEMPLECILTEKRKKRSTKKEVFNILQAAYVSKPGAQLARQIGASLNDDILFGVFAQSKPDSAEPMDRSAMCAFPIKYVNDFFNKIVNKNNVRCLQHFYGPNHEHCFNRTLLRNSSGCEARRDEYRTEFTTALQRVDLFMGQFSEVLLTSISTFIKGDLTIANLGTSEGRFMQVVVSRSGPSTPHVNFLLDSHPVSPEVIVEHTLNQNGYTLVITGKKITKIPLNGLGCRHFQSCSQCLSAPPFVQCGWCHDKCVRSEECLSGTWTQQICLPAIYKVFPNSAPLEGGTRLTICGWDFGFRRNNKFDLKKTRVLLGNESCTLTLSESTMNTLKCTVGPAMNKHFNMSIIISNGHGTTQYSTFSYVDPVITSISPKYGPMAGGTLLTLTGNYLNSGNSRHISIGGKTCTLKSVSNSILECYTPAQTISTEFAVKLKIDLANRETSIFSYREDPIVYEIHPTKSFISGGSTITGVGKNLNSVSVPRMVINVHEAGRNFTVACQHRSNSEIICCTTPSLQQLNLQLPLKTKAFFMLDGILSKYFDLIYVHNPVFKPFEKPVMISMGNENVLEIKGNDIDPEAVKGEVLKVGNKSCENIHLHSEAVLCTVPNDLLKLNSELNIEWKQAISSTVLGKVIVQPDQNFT

hIgG (control) (antibody)
endocytosis % (0 h) [1]: 0%
endocytosis % (0.5 h) [1]: -0.9%
endocytosis % (1 h) [1]: -4.4%
endocytosis % (2 h) [1]: -4.9%
endocytosis % (4 h) [1]: 3.6%

CC[C@H](C)C([C@@H](CC(=O)N1CCC[C@H]1[C@H](OC)[C@@H](C)C(=O)N[C@H](C)[C@@H](O)c1ccccc1)OC)N(C)C(=O)[C@@H](NC(=O)[C@@H](NC)C(C)C)C(C)C (some centres unmarked) [MMAE, Monomethyl auristatin E]
inhibitory activities against a variety of human tumor cell lines [2]: less than one nanomolar

B1: Ab-11 humanized antibody (antibody, human IgG2, kappa, V domains shown)
VH: QVQLVESGGGVVQPGRSLRLSCAASGFTLPNYGVHWVRQAPGKGLEWLAVIWSGGSTNYAAAFVSRLTISKDNSKNTVYLQMNSLRAEDTAVYYCARNHDNPYNYAMDYWGQGTTVTVSS
VL: DIVLTQSPDSLAVSLGERATINCRANKSVSTSTYNYLHWYQQKPGQPPKLLIYLASNLASGVPDRFSGSGSGTDFTLTISSLQAEDVAVYYCQHSRDLPPTFGQGTKLEIKR
notes: Full-length humanized antibody
EC50 [3]: 0.2 nM

B2: Ab-5 (antibody, V domains shown)
VH: QVQLKQSGPGLVQPSQSLSITCTVSGFSLPNYGVHWVRQSPGKGLEWLGVIWSGGSTNYAAAFVSRLRISKDNSKSQVFFEMNSLQADDTAVYYCARNHDNPYNYAMDYWGQGTTVTVSS
VL: DIVLTQSPGSLAVYLGQRATISCRANKSVSTSTYNYLHWYQQKPGQPPKLLIYLASNLASGVPARFSGSGSGTDFTLNIHPLEEEDAATYYCQHSRDLPPTFGAGTKLELKR
Detection Results (OD450) (human c-Met-His): 1.64
